Reference: PMC2766932 (Biochemistry, 2009)
Positions count from the first letter of the chain named. In names and notes the source's numbering stands.

Assays:
Assay in all cases: pull-down
MBP-3 S246D = biological target: MBP-3 S246D
MBP-3 S279A = biological target: MBP-3 S279A
MBP-3 S287A = biological target: MBP-3 S287A
MBP-3 D260A = biological target: MBP-3 D260A
MBP-3 S287D = biological target: MBP-3 S287D
MBP-3 D262A = biological target: T1, MBP-3 D262A
T1 chain: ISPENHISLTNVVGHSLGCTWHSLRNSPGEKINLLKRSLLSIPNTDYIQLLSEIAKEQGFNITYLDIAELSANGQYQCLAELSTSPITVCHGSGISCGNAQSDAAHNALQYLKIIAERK

MBP-3 Q243A = biological target: T2, MBP-3 Q243A
T2 chain: T1 chain with Q49A, A68D

PKR (K296R)-FLAG (from UniProt P19525 1-551) (enzyme)
PKR bound, percent of wt MBP-3 (MBP-3 S246D): 100%
PKR bound, percent of wt MBP-3 (MBP-3 S279A): 23%
PKR bound, percent of wt MBP-3 (MBP-3 S287A): 59%
PKR bound, percent of wt MBP-3 (MBP-3 D260A): 63%
PKR bound, percent of wt MBP-3 (MBP-3 S287D): 95%

B1: PKR (K296R)-FLAG (enzyme, UniProt P19525 1-551, looked up)
chain: MAGDLSAGFFMEELNTYRQKQGVVLKYQELPNSGPPHDRRFTFQVIIDGREFPEGEGRSKKEAKNAAAKLAVEILNKEKKAVSPLLLTTTNSSEGLSMGNYIGLINRIAQKKRLTVNYEQCASGVHGPEGFHYKCKMGQKEYSIGTGSTKQEAKQLAAKLAYLQILSEETSVKSDYLSSGSFATTCESQSNSLVTSTLASESSSEGDFSADTSEINSNSDSLNSSSLLMNGLRNNQRKAKRSLAPRFDLPDMKETKYTVDKRFGMDFKEIELIGSGGFGQVFKAKHRIDGKTYVIRRVKYNNEKAEREVKALAKLDHVNIVHYNGCWDGFDYDPETSDDSLESSDYDPENSKNSSRSKTKCLFIQMEFCDKGTLEQWIEKRRGEKLDKVLALELFEQITKGVDYIHSKKLIHRDLKPSNIFLVDTKQVKIGDFGLVTSLKNDGKRTRSKGTLRYMSPEQISSQDYGKEVDLYALGLILAELLHVCDTAFETSKFFTDLRDGIISDIFDKKEKTLLQKLLSKKPEDRPNTSEILRTLTVWKKSPEKNERHTC
PKR bound, percent of wt MBP-3 (MBP-3 D262A): 2%
PKR bound, percent of wt MBP-3 (MBP-3 Q243A): 9%
